Among the data in article PMC10853763 are Kd values, retold here.

For the data set, the system named is TifA RB69 (phage RB69). Briefly: fluorescence polarization. As to conditions: FP: 50 mM Tris-HCl pH 7.5, 150 mM NaCl, 1 mM DTT, 5% glycerol, 0.1 mg/ml BSA, 5 nM nucleic acid, 30 min at 37 C, SEC: 20 mM Tris-HCl pH 8.5, 50 mM NaCl. Background: In fluorescence polarisation assays a small probe gives low polarisation when free and higher when bound to something large.
As to artJ RNA 15 nt, the Kd (in general, the concentration at which binding is half-saturated) was 2300 nM.
In the case of artJ RNA 30 nt, the Kd worked out at 850 nM.
artJ RNA 45 nt returned a Kd of 360 nM.
